Assay results as given in US20130040853A1, “Context Specific Genetic Screen Platform to Aid in Gene Discovery and Target Validation” (Dana-Farber Cancer Institute Inc., priority 2010, published 2013).
Positions count from the first letter of the chain named. Names may count otherwise.

B1: MAP2K7 WT: wild type MAP2K7 kinase ORF expressed in HMEL cells (protein, UniProt O14733 2-419, looked up)
Dual specificity …: AASSLEQKLSRLEAKLKQENREARRRIDLNLDISPQRPRPTLQLPLANDGGSRSPSSESSPQHPTPPARPRHMLGLPSTLFTPRSMESIEIDQKLQEIMKQTGYLTIGGQRYQAEINDLENLGEMGSGTCGQVWKMRFRKTGHVIAVKQMRRSGNKEENKRILMDLDVVLKSHDCPYIVQCFGTFITNTDVFIAMELMGTCAEKLKKRMQGPIPERILGKMTVAIVKALYYLKEKHGVIHRDVKPSNILLDERGQIKLCDFGISGRLVDSKAKTRSAGCAAYMAPERIDPPDPTKPDYDIRADVWSLGISLVELATGQFPYKNCKTDFEVLTKVLQEEPPLLPGHMGFSGDFQSFVKDCLTKDHRKRPKYNKLLEHSFIKRYETLEVDVASWFKDVMAKTESPRTSGVLSQPHLPFFR
B2: MAP2K4 p.Q142L: MAP2K4 somatic driver mutant, observed in colorectal adenocarcinoma (protein, UniProt P45985 2-399, looked up, variant Q142L)
Dual specificity …: AAPSPSGGGGSGGGSGSGTPGPVGSPAPGHPAVSSMQGKRKALKLNFANPPFKSTARFTLNPNPTGVQNPHIERLRTHSIESSGKLKISPEQHWDFTAEDLKDLGEIGRGAYGSVNKMVHKPSGQIMAVKRIRSTVDEKELKQLLMDLDVVMRSSDCPYIVQFYGALFREGDCWICMELMSTSFDKFYKYVYSVLDDVIPEEILGKITLATVKALNHLKENLKIIHRDIKPSNILLDRSGNIKLCDFGISGQLVDSIAKTRDAGCRPYMAPERIDPSASRQGYDVRSDVWSLGITLYELATGRFPYPKWNSVFDQLTQVVKGDPPQLSNSEEREFSPSFINFVNLCLTKDESKRPKYKELLKHPFILMYEERAVEVACYVCKILDQMPATPSSPMYVD
B3: MAP2K4 p.R154W: MAP2K4 somatic driver mutant, observed in colorectal adenocarcinoma (protein, UniProt P45985 2-399, looked up, variant R154W)
Dual specificity …: B2 Dual specificity … with L141Q, R153W
B4: JNK1 P.G171S: JNK1 somatic mutant, observed in renal clear cell carcinoma (protein, UniProt P45983 1-427, looked up, variant G171S)
Mitogen-activated protein …: MSRSKRDNNFYSVEIGDSTFTVLKRYQNLKPIGSGAQGIVCAAYDAILERNVAIKKLSRPFQNQTHAKRAYRELVLMKCVNHKNIIGLLNVFTPQKSLEEFQDVYIVMELMDANLCQVIQMELDHERMSYLLYQMLCGIKHLHSAGIIHRDLKPSNIVVKSDCTLKILDFSLARTAGTSFMMTPYVVTRYYRAPEVILGMGYKENVDLWSVGCIMGEMVCHKILFPGRDYIDQWNKVIEQLGTPCPEFMKKLQPTVRTYVENRPKYAGYSFEKLFPDVLFPADSEHNKLKASQARDLLSKMLVIDASKRISVDEALQHPYINVWYDPSEAEAPPPKIPDKQLDEREHTIEEWKELIYKEVMDLEERTKNGVIRGQPSPLGAAVINGSQHPSSSSSVNDVSSMSTDPTLASDTDSSLEAAAGPLGCCR

Experiments:
[1] = tested on: HMEL-BRAF^V600E melanocytes; experiment: In vivo functional genetic screen and secondary validation: kinase-transduced HMEL cells implanted in nude mice; parameters: species or system human; conditions: for Tumorigenicity in vivo: WT or mutant kinase expressed individually
From the text: A ‘cancer-kinase’ library was constructed containing sequence-verified ORFs in a lentiviral vector for 110 of the 120 kinases reported to sustain somatic driver mutations in diverse human cancers. This library was pooled and introduced into a human HMEL-BRAF^V600E melanocyte model system engineered with BRAF^V600E and TERT as well as p53DD and CDK4-R24C to inactivate the […] pathways, respectively. The HMEL-BRAF^V600E melanocyte profile, while representing the most common clinically-definable genetic profile in human melanoma, is insufficient to drive efficient melanoma formation following orthotopic transplantation in the skin (penetrance of 10% and latency of 26 weeks). In contrast, 40% of HMEL-BRAF^V600E melanocytes transduced with the cancer kinase pools developed tumors with an average latency of 13 weeks (range 10-18 weeks).
In vivo functional genetic screens: Lentivirus were prepared by co-transfecting 293T cells with individual vector backbones and standard virus packaging systems for subsequent collection of viral supernatants. Viral supernatants were then pooled randomly to generate 8 pools of high-titer lentiviral stocks. HMEL cells were transduced with either GFP control lentivirus or each representative lentiviral pool in the presence of 8 ug/ml polybrene (Company). Infected cells were expanded, mixed 1:1 with Matrigel (BD Bioscience) and then subcutaneously implanted in female nude animals (Taconic) at 1×10^6 cells per site on both flanks. Primary INK4A/ARF−/−, PTEN−/− murine astrocytes were transduced with either GFP control lentivirus or each representative lentiviral pool in the presence of 8 ug/ml polybrene (Company). Infected cells were expanded implanted into the brain parenchyma of female SCID mice (Charles River). Briefly, SCID mice were anesthetized and placed into a stereotactic apparatus equipped with a Z axis (Stoelting). A small hole was bored in the skull 0.5 mm anterior and 3.0 mm lateral to the bregma using a dental drill. Twenty thousand cells in Hank's Buffered Salt Solution were injected into the right caudate nucleus 2 mm below the surface of the brain using a 10-ul Hamilton syringe with an unbeveled 30 gauge needle. The scalp was closed using a 9-mm Autoclip Applier. Animals were followed daily for the development of subQ tumors or signs of neurological deficits. Animals were sacrifice, tumors were harvested, genomic DNA was prepared and kinases expressed in each tumor identified using PCR sequencing using plasmid specific CMV and V5 primers. Expression of each kinase was further validated by western blot analysis. Kinases expressed in each tumor were then enlisted into secondary validation screens in which stable HMEL or mouse astrocyte lines were generated expressing each kinase individually. Cells were again expanded and then implanted in female nude or SCID animals. All mice were housed and treated in accordance with protocols approved by the institutional care and use committees for animal research at the Dana-Farber Cancer Institute.

[2] = tested on: cJUN phosphorylation; experiment: JNK Kinase Assay (WT and mutant kinases immunoprecipitated from HMEL cells); assay type: biochemical, human; conditions: as reported by level of cJUN phosphorylation; for MAP2K4/7 first incubated with inactive JNK2

Molecule	tumor generation individually in secondary HMEL screens ([1]; kinase transduced individually)	Kinase Activity [2]	Tumorigenicity in vivo [1]
B1	did not generate tumors	1X	
B2		4X	YES
B3		3X	YES
B4		1X	YES
